{"source": "patent US20060134087A1", "about": "“ITI-D1 Kunitz domain mutants as hNE inhibitors” (Dyax Corp., priority 1988, published 2006)", "key": {"[1]": {"molecular_target": "T1, hNE (Homo sapiens, UniProt P08246)", "T1 sequence (P08246 30-267)": "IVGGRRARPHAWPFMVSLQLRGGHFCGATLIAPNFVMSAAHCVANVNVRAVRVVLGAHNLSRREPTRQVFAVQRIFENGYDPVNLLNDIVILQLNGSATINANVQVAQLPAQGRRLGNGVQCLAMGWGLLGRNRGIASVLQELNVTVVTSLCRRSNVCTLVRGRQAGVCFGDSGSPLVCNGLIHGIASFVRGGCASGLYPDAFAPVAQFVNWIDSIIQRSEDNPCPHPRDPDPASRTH", "experiment": "Resistance to oxidative inactivation by Chloramine-T, residual hNE-inhibition activity", "assay_type": "physicochemical", "conditions": "20 minutes at RT", "description": "At the end of the incubation period, the oxidation reactions were quenched by adding methionine to a final concentration of 4 mM. After a further 10 minute incubation, the quenched reactions were diluted and assayed for residual inhibitor activity in our standard hNE-inhibition assay.\nInhibitors were incubated in the presence of Chloramine-T at the molar ratios indicated for 20 minutes at RT. Oxidation reactions were quenched by adding methionine to a final concentration of 4 mM. Residual hNE-inhibition activity remaining in the quenched reactions is shown as a percentage of the activity observed with no added oxidant."}, "[2]": {"molecular_target": "T1, hNE", "experiment": "Kinetic on-rate of inhibitors reacting with hNE (progressive inhibition)", "assay_type": "biochemical", "description": "The kinetic on-rates for the inhibitors reacting with hNE (kon) were determined from measurements of progressive inhibition of substrate hydrolytic activity by hNE following addition of inhibitor. For these experiments, a known concentration of inhibitor was added to a solution of hNE (0.847 nM) and substrate (25 μM) in 2 ml of reaction buffer in a plastic fluorescence cuvette. The change in fluorescence was recorded continuously following addition of the inhibitor. […] The enzymatic rate at selected times following addition of the inhibitor was determined from the slope of the tangent to the fluorescence time course at that time.\nThe kinetic constant kon for EPI-HNE-2 reacting with hNE was determined as follows. EPI-HNE-2 at 1.3 nM was added to buffer containing 0.867 nM hNE (I:E=1.5:1) at time 0. Measured percent residual activity was recorded as a function of time after addition of inhibitor. A least-squares fit program was used to obtain the value of kon=4.0×10^6 M^−1s^−1.\nThe kinetic off rate, koff, is calculated from the measured values of Ki and kon as: […] The values from such measurements are included in Table 30. The EPI-HNE proteins are small, high affinity, fast acting inhibitors of hNE. B. Specificity."}, "[3]": {"molecular_target": "T1, hNE", "experiment": "hNE inhibition, hydrolysis of fluorogenic substrate (Ki; standard hNE-inhibition assay)", "assay_type": "biochemical", "description": "Inhibition constants for the proteins reacting with hNE (Ki) were determined using RT measurements of hydrolysis of a fluorogenic substrate (N-methoxysuccinyl-Ala-Ala-Pro-Val-7-amino-4-methylcoumarin, Sigma M-9771) by hNE. For these measurements, aliquots of the appropriately diluted inhibitor stocks were added to 2 ml solutions of 0.847 nM hNE in reaction buffer (50 mM Tris-Cl, pH=8.0, 150 mM NaCl, 1 mM CaCl2, 0.25% Triton-X-100) in plastic fluorescence cuvettes. The reactions were incubated at RT for 30 minutes. At the end of the incubation period, the fluorogenic substrate was added at a concentration of 25 μM and the time course for increase in fluorescence at 470 nm (excitation at 380 nm) due to enzymatic substrate cleavage was recorded using a spectrofluorimeter (Perkin-Elmer 650-15) and strip chart recorder. […] Ki is related to Kapparent by Ki=Kapparent×(1/(1+(S0/Km))). The correction is small compared to the possible errors in Kapparent. Rates of enzymatic substrate cleavage were determined from the linear slopes of the recorded increases in fluorescence. The percent residual activity of hNE in the presence of the inhibitor was calculated as the percentage of the rate of fluorescence increase observed in the presence of the inhibitor to that observed when no added inhibitor was present.\nWe recorded data used to determine Ki for EPI-HNE-2 and EPI-HNE-3 reacting with hNE. Data obtained as described above are recorded as percent residual activity plotted as a function of added inhibitor. Values for Ki and for active inhibitor concentration in the stock are obtained from a least-squares fit program."}, "[4]": {"molecular_target": "T1, hNE", "experiment": "pH stability, residual hNE inhibitory activity", "assay_type": "physicochemical", "conditions": "37° C., 18 hours; for Percent Residual hNE Inhibitory Activity: 1 μM protein", "description": "The stability of the proteins to exposure to pH conditions in the range of pH 1 to pH 10 was assessed by maintaining the inhibitors in buffers of defined pH at 37° C. for 18 hours and determining the residual hNE inhibitory activity in the standard hNE-inhibition assay. Proteins were incubated at a concentration of 1 μM. The buffers shown in Table 4 were formulated as described (STOL90) and used in the pH ranges indicated: […]\nProteins were incubated at 37° C. for 18 hours in buffers of defined pH (see text). In all cases protein concentrations were 1 μM. At the end of the incubation period, aliquots of the reactions were diluted and residual hNE-inhibition activity determined."}}, "data": [{"substance": "EPI-HNE-2: EPI-HNE-1 with four additional residues EAEA at the amino terminus, SEQ ID NO 008", "values": [{"measurement": "Percent Residual hNE-Inhibitory Activity", "setting": "[1]; Molar Ratio CHL-T:Inhibitor 0", "result": 100, "unit": "%"}, {"measurement": "Percent Residual hNE-Inhibitory Activity", "setting": "[1]; Molar Ratio CHL-T:Inhibitor 0.25", "result": 94, "unit": "%"}, {"measurement": "Percent Residual hNE-Inhibitory Activity", "setting": "[1]; Molar Ratio CHL-T:Inhibitor 1.0", "result": 102, "unit": "%"}, {"measurement": "Percent Residual hNE-Inhibitory Activity", "setting": "[1]; Molar Ratio CHL-T:Inhibitor 1.5", "result": 95, "unit": "%"}, {"measurement": "Percent Residual hNE-Inhibitory Activity", "setting": "[1]; Molar Ratio CHL-T:Inhibitor 2.0", "result": 102, "unit": "%"}, {"measurement": "Percent Residual hNE-Inhibitory Activity", "setting": "[1]; Molar Ratio CHL-T:Inhibitor 4.0", "result": 95, "unit": "%"}, {"measurement": "Percent Residual hNE-Inhibitory Activity", "setting": "[1]; Molar Ratio CHL-T:Inhibitor 10.", "result": 98, "unit": "%"}, {"measurement": "Percent Residual hNE-Inhibitory Activity", "setting": "[1]; Molar Ratio CHL-T:Inhibitor .50", "result": 102, "unit": "%"}, {"measurement": "kon", "setting": "[2]; [hNE] = 8.47 × 10^−10 molar", "result": "4.0 10^6/M/s"}, {"measurement": "koff", "setting": "[2]; calculated from koff = KD × kon", "result": "20. 10^−6/s"}, {"measurement": "Percent residual hNE activity", "setting": "[3]; 10. μl of EPI-HNE-2 solution added", "result": 82.9, "unit": "%"}, {"measurement": "Percent residual hNE activity", "setting": "[3]; 20. μl of EPI-HNE-2 solution added", "result": 71.8, "unit": "%"}, {"measurement": "Percent residual hNE activity", "setting": "[3]; 30. μl of EPI-HNE-2 solution added", "result": 59.5, "unit": "%"}, {"measurement": "Percent residual hNE activity", "setting": "[3]; 40. μl of EPI-HNE-2 solution added", "result": 46.2, "unit": "%"}, {"measurement": "Percent residual hNE activity", "setting": "[3]; 50. μl of EPI-HNE-2 solution added", "result": 39.2, "unit": "%"}, {"measurement": "Percent residual hNE activity", "setting": "[3]; 55. μl of EPI-HNE-2 solution added", "result": 32.2, "unit": "%"}, {"measurement": "Percent residual hNE activity", "setting": "[3]; 60. μl of EPI-HNE-2 solution added", "result": 22.5, "unit": "%"}, {"measurement": "Percent residual hNE activity", "setting": "[3]; 65. μl of EPI-HNE-2 solution added", "result": 23.5, "unit": "%"}, {"measurement": "Percent residual hNE activity", "setting": "[3]; 70. μl of EPI-HNE-2 solution added", "result": 15.0, "unit": "%"}, {"measurement": "Percent residual hNE activity", "setting": "[3]; 75. μl of EPI-HNE-2 solution added", "result": 10.4, "unit": "%"}, {"measurement": "Percent residual hNE activity", "setting": "[3]; 80. μl of EPI-HNE-2 solution added", "result": 8.6, "unit": "%"}, {"measurement": "Percent residual hNE activity", "setting": "[3]; 85. μl of EPI-HNE-2 solution added", "result": 4.8, "unit": "%"}, {"measurement": "Percent residual hNE activity", "setting": "[3]; 90. μl of EPI-HNE-2 solution added", "result": 1.4, "unit": "%"}, {"measurement": "Percent residual hNE activity", "setting": "[3]; 95. μl of EPI-HNE-2 solution added", "result": 2.0, "unit": "%"}, {"measurement": "Percent residual hNE activity", "setting": "[3]; 100. μl of EPI-HNE-2 solution added", "result": 2.5, "unit": "%"}, {"measurement": "Percent residual hNE activity", "setting": "[3]; 120. μl of EPI-HNE-2 solution added", "result": 0.2, "unit": "%"}, {"measurement": "Percent residual hNE activity", "setting": "[3]; 150. μl of EPI-HNE-2 solution added", "result": 0.2, "unit": "%"}, {"measurement": "Percent residual hNE activity", "setting": "[3]; 200. μl of EPI-HNE-2 solution added", "result": 0.04, "unit": "%"}, {"measurement": "pH stability", "setting": "[4]; pH 1 to pH 10, 1 μM", "result": "stable at all pH values tested"}, {"measurement": "Percent Residual hNE Inhibitory Activity", "setting": "[4]; Incubation pH 1.0", "result": 98, "unit": "%"}, {"measurement": "Percent Residual hNE Inhibitory Activity", "setting": "[4]; Incubation pH 2.0", "result": 97, "unit": "%"}, {"measurement": "Percent Residual hNE Inhibitory Activity", "setting": "[4]; Incubation pH 3.0", "result": 101, "unit": "%"}, {"measurement": "Percent Residual hNE Inhibitory Activity", "setting": "[4]; Incubation pH 4.0", "result": 101, "unit": "%"}, {"measurement": "Percent Residual hNE Inhibitory Activity", "setting": "[4]; Incubation pH 5.5", "result": 99, "unit": "%"}, {"measurement": "Percent Residual hNE Inhibitory Activity", "setting": "[4]; Incubation pH 7.0", "result": 103, "unit": "%"}, {"measurement": "Percent Residual hNE Inhibitory Activity", "setting": "[4]; Incubation pH 8.5", "result": 104, "unit": "%"}, {"measurement": "Percent Residual hNE Inhibitory Activity", "setting": "[4]; Incubation pH 10.0", "result": 102, "unit": "%"}]}]}
